Consider 3 substances from patent publication US5418135.

This assay deals with PDGF receptor (cell membrane-bound receptor for native PDGF).
Substance “A6, Endo Lys-C fragment aa 12-41 of alkylated PDGF A monomer (peptide)” showed an HALF-MAX INHIBITION (3H-thymidine incorporation induced by PDGF dimer) above 200 nM.

As to “PDGF A chain monomer, intact, Cys residues pyridylethylated (ligand)”, the HALF-MAX INHIBITION (3H-thymidine incorporation induced by PDGF dimer) came out at 100 nM.

Substance “A4, Endo Lys-C fragment aa 80-110 of alkylated PDGF A monomer (peptide)” showed an HALF-MAX INHIBITION (3H-thymidine incorporation induced by PDGF dimer) of 100 nM.
